The assay addresses recombinant influenza HA3-protein (from H3N2, Wyoming, March 2003, Sino Biological Inc.) (influenza H3N2, Wyoming, March 2003). Kind of assay: SPR imaging (IBIS MX96), antibody captured on anti-human-IgG chip, HA3 injected at 1 µg/ml, global 1:1 fit.

B1: AT10-004 mutant B (antibody, V domains shown)
VH: RASQSVSRYLA
VL: RASQSVSRYLA
By Kd is commonly meant the free concentration of one partner at which half of the binding sites on the other are occupied at equilibrium, for simple one-to-one binding. What is called koff is the first-order rate constant of dissociation. One may read the kon as a measure of how fast the partners come together. Regarding B1, the Kd was 50 pM, the koff is 1e-06 s⁻¹ and the kon stood at 19000 M⁻¹ s⁻¹.

B2: AT10-004 mutant C (antibody, V domains shown)
VH: RASQSVSRFLA
VL: RASQSVSRFLA
With B2, the Kd was 60 pM, the koff was determined as 1e-06 s⁻¹ and the kon was 17000 M⁻¹ s⁻¹.

The values are drawn from patent publication US20130331552A1.
